Reference: article PMC9537309, “The solution structure of Dead End bound to AU-rich RNA reveals an unusual mode of tandem RRM-RNA recognition required for mRNA regulation”
Positions count from the first letter of the chain named.

Columns and labels:
DND1 RRM12 T135A = biological target: T1, DND1 RRM12 T135A (human, UniProt Q8IYX4 12-235, T135A); experiment: NMR titration; binding not reduced; ITC: 100 mM potassium phosphate pH 6.6, 1 mM 2-mercaptoethanol, 25 C; NMR: 100 mM potassium phosphate pH 6.6, 1 mM DTT, 298 K (or 20 mM MES pH 6.6, 100 mM NaCl); Supplementary Fig. 3: 25 mM NaCl, 2 mM DTT, pH 6.3, 303 K; details: protein: recombinant; tags: N-terminal 6xHis, TEV-cleaved; label: selective 13C-ribose in some structure samples; unlabeled in titrations
T1 sequence: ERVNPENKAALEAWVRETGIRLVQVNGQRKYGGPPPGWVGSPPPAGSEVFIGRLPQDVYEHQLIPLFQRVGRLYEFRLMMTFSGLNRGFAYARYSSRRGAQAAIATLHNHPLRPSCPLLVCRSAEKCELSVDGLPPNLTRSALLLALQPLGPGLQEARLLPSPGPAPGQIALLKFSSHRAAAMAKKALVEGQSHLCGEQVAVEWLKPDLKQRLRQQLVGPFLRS

DND1 RRM12 K197A = biological target: T2, DND1 RRM12 K197A (human, UniProt Q8IYX4 12-235, K197A); experiment: ITC; N = 0.98; ITC: 100 mM potassium phosphate pH 6.6, 1 mM 2-mercaptoethanol, 25 C; NMR: 100 mM potassium phosphate pH 6.6, 1 mM DTT, 298 K (or 20 mM MES pH 6.6, 100 mM NaCl); Supplementary Fig. 3: 25 mM NaCl, 2 mM DTT, pH 6.3, 303 K; details: protein: recombinant; tags: N-terminal 6xHis, TEV-cleaved; label: selective 13C-ribose in some structure samples; unlabeled in titrations
T2 sequence: T1 sequence with A124T, K186A

DND1 RRM12 R98A = biological target: T3, DND1 RRM12 R98A (human, UniProt Q8IYX4 12-235, R98A); experiment: NMR titration; ITC: 100 mM potassium phosphate pH 6.6, 1 mM 2-mercaptoethanol, 25 C; NMR: 100 mM potassium phosphate pH 6.6, 1 mM DTT, 298 K (or 20 mM MES pH 6.6, 100 mM NaCl); Supplementary Fig. 3: 25 mM NaCl, 2 mM DTT, pH 6.3, 303 K; details: protein: recombinant; tags: N-terminal 6xHis, TEV-cleaved; label: selective 13C-ribose in some structure samples; unlabeled in titrations
T3 sequence: T1 sequence with R87A, A124T

DND1 RRM12 M90A = biological target: T4, DND1 RRM12 M90A (human, UniProt Q8IYX4 12-235, M90A); experiment: as above; details: protein: recombinant; tags: N-terminal 6xHis, TEV-cleaved; label: selective 13C-ribose in some structure samples; unlabeled in titrations
T4 sequence: T1 sequence with M79A, A124T

[1] = biological target: T5, DND1 RRM12 (tandem RRMs) WT (human, UniProt Q8IYX4 12-235); experiment: ITC; N = 1.04; text and Supplementary Table 2 print 0.68; ITC: 100 mM potassium phosphate pH 6.6, 1 mM 2-mercaptoethanol, 25 C; NMR: 100 mM potassium phosphate pH 6.6, 1 mM DTT, 298 K (or 20 mM MES pH 6.6, 100 mM NaCl); Supplementary Fig. 3: 25 mM NaCl, 2 mM DTT, pH 6.3, 303 K; details: protein: recombinant; tags: N-terminal 6xHis, TEV-cleaved; label: selective 13C-ribose in some structure samples; unlabeled in titrations
T5 sequence: T1 sequence with A124T

[2] = biological target: T5, DND1 RRM12 (tandem RRMs) WT; experiment: NMR titration; highest affinity of the three oligos; ITC: 100 mM potassium phosphate pH 6.6, 1 mM 2-mercaptoethanol, 25 C; NMR: 100 mM potassium phosphate pH 6.6, 1 mM DTT, 298 K (or 20 mM MES pH 6.6, 100 mM NaCl); Supplementary Fig. 3: 25 mM NaCl, 2 mM DTT, pH 6.3, 303 K; details: protein: recombinant; tags: N-terminal 6xHis, TEV-cleaved
DND1 RRM2 = biological target: T6, DND1 RRM2 (human, UniProt Q8IYX4 136-227); experiment: NMR titration; ITC: 100 mM potassium phosphate pH 6.6, 1 mM 2-mercaptoethanol, 25 C; NMR: 100 mM potassium phosphate pH 6.6, 1 mM DTT, 298 K (or 20 mM MES pH 6.6, 100 mM NaCl); Supplementary Fig. 3: 25 mM NaCl, 2 mM DTT, pH 6.3, 303 K; details: protein: recombinant; tags: N-terminal 6xHis, TEV-cleaved
T6 sequence: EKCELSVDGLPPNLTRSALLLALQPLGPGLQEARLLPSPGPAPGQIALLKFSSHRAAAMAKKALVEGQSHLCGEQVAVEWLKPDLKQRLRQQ

DND1 extended RRM1 = biological target: T7, DND1 extended RRM1 (human, UniProt Q8IYX4 12-139); experiment: as above; details: protein: recombinant; tags: N-terminal 6xHis, TEV-cleaved
T7 sequence: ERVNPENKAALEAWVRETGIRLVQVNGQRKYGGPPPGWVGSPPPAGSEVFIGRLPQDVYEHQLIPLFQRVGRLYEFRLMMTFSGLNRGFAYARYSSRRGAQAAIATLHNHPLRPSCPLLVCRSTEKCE

Binder: CUUAUUUG (ssRNA)
- binding result (DND1 RRM12 T135A): binds
- Kd (DND1 RRM12 K197A): 2600 ± 100 nM
- binding result (DND1 RRM12 R98A): no binding
- binding result (DND1 RRM12 M90A): no binding
- Kd [1]: 690 ± 30 nM

Binder: UUAUUU (ssRNA)
- binding result [2]: binds
- binding result (DND1 RRM2): no binding

Binder: UUUUUAC (ssRNA)
- binding result (DND1 extended RRM1): no binding
- binding result (DND1 RRM2): no binding

Binder: UUUUUCC (ssRNA)
- binding result (DND1 extended RRM1): no binding
- binding result (DND1 RRM2): no binding
